Results on 12 molecules are retold here after patent US20160075781A1 (IMMUNOGEN, published 2016).

The target in assay [1] is T1, human folate receptor 1 (human, UniProt P15328 25-234). In words: cell-based or functional assay.
For assay [2], the target named is T1, human folate receptor 1. In words: apparent affinity, flow cytometry on FOLR1-expressing cells ('as described above'; cell line not named in Example 19, SKOV3 in Example 13). Background: A flow cytometer gives signals particle by particle.
Assay [3] deals with T1, human folate receptor 1. The experiment in a line: flow cytometry on FOLR1-expressing SKOV3 cells; apparent Kd from the fit of MFI against antibody concentration. The method, then: Binding affinities of anti-FOLR1 antibodies and of their SPDB-DM4, PEG4Mal-DM4, SMCC-DM1, or anti-FOLR1-sulfo-SPDB-DM4 conjugates were assayed by Flow Cytometry. FOLR1-expressing SKOV3 cells were incubated with varying concentrations of anti-FOLR1 antibodies or their conjugates and processed as described above for flow cytometry analysis. Data analysis was performed using CellQuest Pro (BD Biosciences, San Diego, US) and for each sample the mean fluorescence intensity for FL1 (MFI) was exported and plotted against the antibody concentration in a semi-log plot. A dose-response curve was generated by non-linear regression and the value for the apparent equilibrium dissociation constant (Kd) of the test-samples for the binding to SKOV3 cells was calculated using GraphPad Prism v4 (GraphPad software, San Diego, Calif.) and presented in FIG. 5.

T1 sequence (P15328 25-234 limits assumed): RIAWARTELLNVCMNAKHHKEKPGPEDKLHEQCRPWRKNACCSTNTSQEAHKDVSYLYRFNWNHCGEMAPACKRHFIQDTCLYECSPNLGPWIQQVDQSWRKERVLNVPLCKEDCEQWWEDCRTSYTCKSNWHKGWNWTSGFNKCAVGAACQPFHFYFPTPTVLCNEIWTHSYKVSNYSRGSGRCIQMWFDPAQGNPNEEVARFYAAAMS

B1: huMov19-PEG4-mal-DM4 (antibody, V domains shown)
VH: QVQLVQSGAEVVKPGASVKISCKASGYTFTGYFMNWVKQSPGQSLEWIGRIHPYDGDTFYNQKFQGKATLTVDKSSNTAHMELLSLTSEDFAVYYCTRYDGSRAMDYWGQGTTVTVSS
VL: DIVLTQSPLSLAVSLGQPAIISCKASQSVSFAGTSLMHWYHQKPGQQPRLLIYRASNLEAGVPDRFSGSGSKTDFTLNISPVEAEDAATYYCQQSREYPYTFGGGTKLEIKR
modifications: maytansinoid DM4 attached through the PEG4-mal linker; residues and chain not stated
With B1, the “IC50, cytotoxic activity of the PEG4-mal-DM4 conjugate on KB cells, continuous exposure (WST-8 survival)” value (from here on “IC50, cytotoxic activity”) in the assay with human folate receptor 1 [1] was found to be 0.15 nM.

B2: huMov19 (antibody, V domains shown)
VH: QVQLVQSGAEVVKPGASVKISCKASGYTFTGYFMNWVKQSPGQSLEWIGRIHPYDGDTFYNQKFQGKATLTVDKSSNTAHMELLSLTSEDFAVYYCTRYDGSRAMDYWGQGTTVTVSS
VL: DIVLTQSPLSLAVSLGQPAIISCKASQSVSFAGTSLMHWYHQKPGQQPRLLIYRASNLEAGVPDRFSGSGSKTDFTLNISPVEAEDAATYYCQQSREYPYTFGGGTKLEIKR
notes: Resurfaced humanized Mov19, full IgG1/kappa; also called humanized Mov19
Consider B2, for which the Kd in the assay with human folate receptor 1 [2] is 0.06 nM; in the assay with human folate receptor 1 [3] it was 0.07 nM.

B3: huFR1-65 (antibody, human IgG1, kappa, V domains shown)
VH: QVQLVQSGAEVAKPGASVKMSCKASGYTFTSYTMHWVKQRPGQGLAWIGYINPISGYTNYNQKFQGKATLTADKSSSTAYMQLNSLTSEDSAVYYCASGGAYGRKPMDYWGQGTSVTVSS
VL: EIVMTQSPATMSTSPGDRVSVTCKASQNVGPNVAWYQQKPGQSPRALIYSASYRYSGVPARFTGSGSGTDFTLTISNMQSEDLAEYFCQQYNSYPYTFGQGTKLEIKR
With B3, in the assay with human folate receptor 1 [2], the Kd turned out to be 0.15 nM.

B4: huFR1-48 (antibody, human IgG1, kappa, V domains shown)
VH: QVQLVQSGAEVAKPGASVKLSCKASGYTFTNYWMQWIKQRPGQGLEWIGAIYPGNGDSRYTQKFQGKATLTADKSSSTAYMQVSSLTSEDSAVYYCARRDGNYAAYWGQGTLVTVSA
VL: DIQMTQSPSSLSVSVGERVTITCRASENIYSNLAWYQQKPGKSPKLLVYAATNLADGVPSRFSGSESGTDYSLKINSLQPEDFGSYYCQHFWASPYTFGQGTKLEIKR
Take B4: in the assay with human folate receptor 1 [2], the Kd was 0.13 nM.

B5: huFR1-49 (antibody, human IgG1, kappa, V domains shown)
VH: QVQLQQSGAVVAKPGASVKMSCKASGYTFTNYWMYWIKQRPGQGLELIGAIYPGNSDTTYNQKFQGKATLTAVTSANTVYMEVSSLTSEDSAVYYCTKRHDYGAMDYWGQGTSVTVSS
VL: DIQMTQSPSSLSVSVGERVTITCRASENIYTNLAWYQQKPGKSPKLLVYTASNLADGVPSRFSGSGSGTDYSLKINSLQPEDFGTYYCQHFWVSPYTFGQGTKLEIKR
Turning to B5, the Kd in the assay with human folate receptor 1 [2] was 0.08 nM.

B6: muFR1-21 PEG4-mal-DM4 conjugate (antibody, mouse IgG2b, kappa, V domains shown)
VH: EVKLVESGGDLVKPGGSLKLSCAASGFTFSSYGMSWVRQTPDKRLECVATISSGGSYTYYPDGVKGRFTISRDNAKNTLYLQMSSLKSEDTAMYYCARDGEGGLYAMDYWGQGTSVTVSS
VL: DIQMTQSSSYLSVSLGGRVTITCKASDHINNWLAWYQQKPGNAPRLLISGATSLETGVPSRFSGSGSGKDYTLSISSLQTEDVATYYCQQYWSTPFTFGSGTKLEIKR
modifications: DM4 linked through PEG4-mal; sites not given
As for B6, in the assay with human folate receptor 1 [1], the “IC50, cytotoxic activity” value was 0.1 nM.

B7: muFR1-21 (antibody, mouse IgG2b, kappa, V domains shown)
VH: EVKLVESGGDLVKPGGSLKLSCAASGFTFSSYGMSWVRQTPDKRLECVATISSGGSYTYYPDGVKGRFTISRDNAKNTLYLQMSSLKSEDTAMYYCARDGEGGLYAMDYWGQGTSVTVSS
VL: DIQMTQSSSYLSVSLGGRVTITCKASDHINNWLAWYQQKPGNAPRLLISGATSLETGVPSRFSGSGSGKDYTLSISSLQTEDVATYYCQQYWSTPFTFGSGTKLEIKR
notes: murine anti-FOLR1 antibody; also called murine FR1-21
Turning to B7, the Kd with human folate receptor 1 [3] was found to be 0.07 nM.

B8: huFR1-21-PEG4-mal-DM4 (antibody, human IgG1, kappa, V domains shown)
VH: EVQLVESGGDVVKPGGSLKLSCAASGFTFSSYGMSWVRQTPGKGLECVATISSGGSYTYYSPGFQGRFTISRDKSKNTLYLQMSSLKAEDTAMYYCARDGEGGLYAMDYWGQGTSVTVSS
VL: DIQMTQSSSSLSVSVGGRVTITCKASDHINNWLAWYQQKPGKAPKLLISGATSLETGVPSRFSGSGSGKDYTLSISSLQPEDVATYYCQQYWSTPFTFGQGTKLEIKR
modifications: maytansinoid DM4 attached through the PEG4-mal linker; residues and chain not stated
Take B8: the “IC50, cytotoxic activity” value with human folate receptor 1 [1] amounted to 0.1 nM.

B9: huFR1-21 (antibody, human IgG1, kappa, V domains shown)
VH: EVQLVESGGDVVKPGGSLKLSCAASGFTFSSYGMSWVRQTPGKGLECVATISSGGSYTYYSPGFQGRFTISRDKSKNTLYLQMSSLKAEDTAMYYCARDGEGGLYAMDYWGQGTSVTVSS
VL: DIQMTQSSSSLSVSVGGRVTITCKASDHINNWLAWYQQKPGKAPKLLISGATSLETGVPSRFSGSGSGKDYTLSISSLQPEDVATYYCQQYWSTPFTFGQGTKLEIKR
notes: unconjugated humanized FR1-21; also called humanized FR1-21
Regarding B9, in the assay with human folate receptor 1 [3], the Kd was 0.07 nM.

B10: huFR1-57 (antibody, human IgG1, kappa, V domains shown)
VH: EVQLVESGGGLVQPGGSRRLSCAASGFTFSSFGMHWVRQAPGKGLEWVAYISSGSSTISYADSVKGRFTISRDNSKKTLLLQMTSLRAEDTAMYYCAREAYGSSMEYWGQGTLVTVSS
VL: EIVLTQSPATLSVTPGDRVSLSCRASQNINNNLHWYQQKPGQSPRLLIKYVSQSVSGIPDRFSGSGSGTDFTLSISSVEPEDFGMYFCQQSNSWPHYTFGQGTKLEIKR
As to B10, the Kd with human folate receptor 1 [2] turned out to be 0.14 nM.

B11: muFR1-9 (antibody, V domains shown)
VH: QVQLVESGGGLVQPGGSRKLSCAASGFTFSSFGMHWVRQAPEKGLEWVAYISSGSSTFYYADTVKGRFTISRDNPKNTLFLQMTSLRSEDTAMYYCAKELTGTFAYWGQGTLVTVSA
VL: DIVLTQSPATLSVTPGDSVSLSCRASQSINNNLHWYQQKSHESPRLLIKYASQSISGIPSRFSGSGSGTDFTLSINSVETEDFGMYFCQQSNSWPQVTFGAGTKLELKR
For B11, the Kd with human folate receptor 1 [3] was 0.13 nM.

B12: muFR1-13 (antibody, V domains shown)
VH: QVQLKESGPDLVAPSQSLSITCTVSGFSLSRYSVHWIRQPPGKGLEWLGMIWSGGNTDYNSVFKSRLNITKDNSKSQVFLKMNSLQTDDTAIYYCATFDGKVSWFAYWGQGTLVTVSA
VL: SIVMTQTPKFLLVSTGDRFTITCKASQSVSNDVLWYQQKPGQSPKLLIYYAYNRYSGVPDRFTGSGYGTDFTFTITTVQSEDLAVYFCQQDHSSPFTFGSGTKLEIKR
As to B12, the Kd in the assay with human folate receptor 1 [3] worked out at 0.66 nM.
